Positions of bridges follow the written chain, without caps; N, C: chain ends. Non-standard residues stand in square brackets, D forms with d. Trp(1-Me) = Cn1cc(C[C@H](N)C(=O)O)c2ccccc21; 2Nal = N[C@@H](Cc1ccc2ccccc2c1)C(=O)O; Sar = CNCC(=O)O Where only a bound is given, the exact number is not on record here.

The target of this assay is Human C3 (human, UniProt P01024 23-1663). Kind of assay: cell-based or functional assay.
Human C3, sequence (P01024 23-1663 limits assumed): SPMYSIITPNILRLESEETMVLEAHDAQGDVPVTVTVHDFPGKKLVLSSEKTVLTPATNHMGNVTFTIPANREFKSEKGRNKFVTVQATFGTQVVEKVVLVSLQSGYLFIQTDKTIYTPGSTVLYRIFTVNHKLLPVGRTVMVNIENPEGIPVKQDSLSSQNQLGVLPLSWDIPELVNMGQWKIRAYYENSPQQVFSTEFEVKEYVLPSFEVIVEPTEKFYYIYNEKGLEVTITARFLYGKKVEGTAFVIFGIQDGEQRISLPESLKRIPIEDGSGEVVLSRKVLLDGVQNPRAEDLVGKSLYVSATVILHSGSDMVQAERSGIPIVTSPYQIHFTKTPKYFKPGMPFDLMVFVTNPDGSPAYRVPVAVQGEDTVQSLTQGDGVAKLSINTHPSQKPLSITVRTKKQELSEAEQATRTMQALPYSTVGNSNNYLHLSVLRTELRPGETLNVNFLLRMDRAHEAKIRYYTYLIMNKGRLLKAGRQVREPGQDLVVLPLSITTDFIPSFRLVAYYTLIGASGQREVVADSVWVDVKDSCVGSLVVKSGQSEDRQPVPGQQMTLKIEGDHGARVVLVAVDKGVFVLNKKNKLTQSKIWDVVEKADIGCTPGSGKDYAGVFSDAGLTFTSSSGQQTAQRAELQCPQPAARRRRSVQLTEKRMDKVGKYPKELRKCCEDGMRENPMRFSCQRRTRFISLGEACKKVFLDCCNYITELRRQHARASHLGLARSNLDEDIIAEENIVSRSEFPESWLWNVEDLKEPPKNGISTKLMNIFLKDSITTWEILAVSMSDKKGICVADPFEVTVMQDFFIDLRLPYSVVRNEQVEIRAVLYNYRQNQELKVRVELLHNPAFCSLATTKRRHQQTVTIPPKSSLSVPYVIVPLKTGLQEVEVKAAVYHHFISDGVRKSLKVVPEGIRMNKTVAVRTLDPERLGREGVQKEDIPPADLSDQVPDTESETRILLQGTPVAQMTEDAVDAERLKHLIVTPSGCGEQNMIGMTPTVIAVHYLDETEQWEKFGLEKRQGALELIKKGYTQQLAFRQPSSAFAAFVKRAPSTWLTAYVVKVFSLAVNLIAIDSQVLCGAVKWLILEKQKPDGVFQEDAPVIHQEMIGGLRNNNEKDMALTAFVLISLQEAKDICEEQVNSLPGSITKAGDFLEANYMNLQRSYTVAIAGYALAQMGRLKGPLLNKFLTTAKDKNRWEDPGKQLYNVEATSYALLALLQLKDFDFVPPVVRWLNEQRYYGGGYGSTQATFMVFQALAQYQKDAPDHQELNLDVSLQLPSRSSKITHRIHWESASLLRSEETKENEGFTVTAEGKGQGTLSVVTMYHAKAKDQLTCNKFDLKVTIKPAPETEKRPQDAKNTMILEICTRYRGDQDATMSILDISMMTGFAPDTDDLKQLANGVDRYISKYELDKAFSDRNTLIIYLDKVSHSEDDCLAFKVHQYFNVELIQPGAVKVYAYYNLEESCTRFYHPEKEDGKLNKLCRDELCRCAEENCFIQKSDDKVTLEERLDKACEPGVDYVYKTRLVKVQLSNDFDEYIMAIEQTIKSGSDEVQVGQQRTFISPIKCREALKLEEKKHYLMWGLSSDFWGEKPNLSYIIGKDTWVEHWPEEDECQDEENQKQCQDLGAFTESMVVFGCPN

B1: Compound 71 (peptide)
peptide: Ac-SEYCI[Trp(1-Me)]QDWGEHRC[Sar]EA-NH2
modifications: disulfide 4-14
SMILES: CC[C@H](C)[C@@H]1NC(=O)[C@@H](NC(=O)[C@H](Cc2ccc(O)cc2)NC(=O)[C@H](CCC(=O)O)NC(=O)[C@H](CO)NC(C)=O)CSSC[C@@H](C(=O)N(C)CC(=O)N[C@@H](CCC(=O)O)C(=O)N[C@@H](C)C(N)=O)NC(=O)[C@H](CCCNC(=N)N)NC(=O)[C@H](Cc2c[nH]cn2)NC(=O)[C@H](CCC(=O)O)NC(=O)CNC(=O)[C@H](Cc2c[nH]c3ccccc23)NC(=O)[C@H](CC(=O)O)NC(=O)[C@H](CCC(N)=O)NC(=O)[C@H](Cc2cn(C)c3ccccc23)NC1=O
B1 gave an IC50[nM], inhibition of hemolysis of less than 100 nM.

B2: Compound 76 (peptide)
peptide: Ac-SEFCI[Trp(1-Me)]QDW[Sar]EHRC[Sar]EA-NH2
modifications: disulfide 4-14
SMILES: CC[C@H](C)[C@@H]1NC(=O)[C@@H](NC(=O)[C@H](Cc2ccccc2)NC(=O)[C@H](CCC(=O)O)NC(=O)[C@H](CO)NC(C)=O)CSSC[C@@H](C(=O)N(C)CC(=O)N[C@@H](CCC(=O)O)C(=O)N[C@@H](C)C(N)=O)NC(=O)[C@H](CCCNC(=N)N)NC(=O)[C@H](Cc2c[nH]cn2)NC(=O)[C@H](CCC(=O)O)NC(=O)CN(C)C(=O)[C@H](Cc2c[nH]c3ccccc23)NC(=O)[C@H](CC(=O)O)NC(=O)[C@H](CCC(N)=O)NC(=O)[C@H](Cc2cn(C)c3ccccc23)NC1=O
Molecule B2 yielded an IC50[nM], inhibition of hemolysis of less than 100 nM.

B3: Compound 65 (peptide)
peptide: Ac-YCI[2Nal]QDWGEHRCTGAES-NH2
modifications: disulfide 2-12
SMILES: CC[C@H](C)[C@@H]1NC(=O)[C@@H](NC(=O)[C@H](Cc2ccc(O)cc2)NC(C)=O)CSSC[C@@H](C(=O)N[C@H](C(=O)NCC(=O)N[C@@H](C)C(=O)N[C@@H](CCC(=O)O)C(=O)N[C@@H](CO)C(N)=O)[C@@H](C)O)NC(=O)[C@H](CCCNC(=N)N)NC(=O)[C@H](Cc2c[nH]cn2)NC(=O)[C@H](CCC(=O)O)NC(=O)CNC(=O)[C@H](Cc2c[nH]c3ccccc23)NC(=O)[C@H](CC(=O)O)NC(=O)[C@H](CCC(N)=O)NC(=O)[C@H](Cc2ccc3ccccc3c2)NC1=O
B3 gave an IC50[nM], inhibition of hemolysis of less than 100 nM.

B4: Compound 78 (peptide)
peptide: Ac-SEFCI[Trp(1-Me)]QDWGEHRC[Sar]E-NH2
modifications: disulfide 4-14
SMILES: CC[C@H](C)[C@@H]1NC(=O)[C@@H](NC(=O)[C@H](Cc2ccccc2)NC(=O)[C@H](CCC(=O)O)NC(=O)[C@H](CO)NC(C)=O)CSSC[C@@H](C(=O)N(C)CC(=O)N[C@@H](CCC(=O)O)C(N)=O)NC(=O)[C@H](CCCNC(=N)N)NC(=O)[C@H](Cc2c[nH]cn2)NC(=O)[C@H](CCC(=O)O)NC(=O)CNC(=O)[C@H](Cc2c[nH]c3ccccc23)NC(=O)[C@H](CC(=O)O)NC(=O)[C@H](CCC(N)=O)NC(=O)[C@H](Cc2cn(C)c3ccccc23)NC1=O
The molecule B4 gave an IC50[nM], inhibition of hemolysis of less than 100 nM.

B5: Compound 69 (peptide)
peptide: Ac-YCI[Trp(1-Me)]QDWGEHRCTESGA-NH2
modifications: disulfide 2-12
SMILES: CC[C@H](C)[C@@H]1NC(=O)[C@@H](NC(=O)[C@H](Cc2ccc(O)cc2)NC(C)=O)CSSC[C@@H](C(=O)N[C@H](C(=O)N[C@@H](CCC(=O)O)C(=O)N[C@@H](CO)C(=O)NCC(=O)N[C@@H](C)C(N)=O)[C@@H](C)O)NC(=O)[C@H](CCCNC(=N)N)NC(=O)[C@H](Cc2c[nH]cn2)NC(=O)[C@H](CCC(=O)O)NC(=O)CNC(=O)[C@H](Cc2c[nH]c3ccccc23)NC(=O)[C@H](CC(=O)O)NC(=O)[C@H](CCC(N)=O)NC(=O)[C@H](Cc2cn(C)c3ccccc23)NC1=O
B5 came in with an IC50[nM], inhibition of hemolysis of less than 100 nM.

B6: Compound 83 (peptide)
peptide: Ac-SEFCI[Trp(1-Me)]QEWGEHRC[Sar]EA-NH2
modifications: disulfide 4-14
SMILES: CC[C@H](C)[C@@H]1NC(=O)[C@@H](NC(=O)[C@H](Cc2ccccc2)NC(=O)[C@H](CCC(=O)O)NC(=O)[C@H](CO)NC(C)=O)CSSC[C@@H](C(=O)N(C)CC(=O)N[C@@H](CCC(=O)O)C(=O)N[C@@H](C)C(N)=O)NC(=O)[C@H](CCCNC(=N)N)NC(=O)[C@H](Cc2c[nH]cn2)NC(=O)[C@H](CCC(=O)O)NC(=O)CNC(=O)[C@H](Cc2c[nH]c3ccccc23)NC(=O)[C@H](CCC(=O)O)NC(=O)[C@H](CCC(N)=O)NC(=O)[C@H](Cc2cn(C)c3ccccc23)NC1=O
B6 gave an IC50[nM], inhibition of hemolysis of less than 100 nM.

B7: Compound 79 (peptide)
peptide: Ac-SEFCI[Trp(1-Me)]QDW[Sar]EHRC[Sar]E-NH2
modifications: disulfide 4-14
SMILES: CC[C@H](C)[C@@H]1NC(=O)[C@@H](NC(=O)[C@H](Cc2ccccc2)NC(=O)[C@H](CCC(=O)O)NC(=O)[C@H](CO)NC(C)=O)CSSC[C@@H](C(=O)N(C)CC(=O)N[C@@H](CCC(=O)O)C(N)=O)NC(=O)[C@H](CCCNC(=N)N)NC(=O)[C@H](Cc2c[nH]cn2)NC(=O)[C@H](CCC(=O)O)NC(=O)CN(C)C(=O)[C@H](Cc2c[nH]c3ccccc23)NC(=O)[C@H](CC(=O)O)NC(=O)[C@H](CCC(N)=O)NC(=O)[C@H](Cc2cn(C)c3ccccc23)NC1=O
Molecule B7 returned an IC50[nM], inhibition of hemolysis of less than 100 nM.

B8: Compound 68 (peptide)
peptide: Ac-YCI[Trp(1-Me)]QDWGEHRCTEAGS-NH2
modifications: disulfide 2-12
SMILES: CC[C@H](C)[C@@H]1NC(=O)[C@@H](NC(=O)[C@H](Cc2ccc(O)cc2)NC(C)=O)CSSC[C@@H](C(=O)N[C@H](C(=O)N[C@@H](CCC(=O)O)C(=O)N[C@@H](C)C(=O)NCC(=O)N[C@@H](CO)C(N)=O)[C@@H](C)O)NC(=O)[C@H](CCCNC(=N)N)NC(=O)[C@H](Cc2c[nH]cn2)NC(=O)[C@H](CCC(=O)O)NC(=O)CNC(=O)[C@H](Cc2c[nH]c3ccccc23)NC(=O)[C@H](CC(=O)O)NC(=O)[C@H](CCC(N)=O)NC(=O)[C@H](Cc2cn(C)c3ccccc23)NC1=O
B8 displayed an IC50[nM], inhibition of hemolysis of less than 100 nM.

B9: Compound 70 (peptide)
peptide: Ac-EGSAYCI[Trp(1-Me)]QEWGEHRC[Sar]E-NH2
modifications: disulfide 6-16
SMILES: CC[C@H](C)[C@@H]1NC(=O)[C@@H](NC(=O)[C@H](Cc2ccc(O)cc2)NC(=O)[C@H](C)NC(=O)[C@H](CO)NC(=O)CNC(=O)[C@H](CCC(=O)O)NC(C)=O)CSSC[C@@H](C(=O)N(C)CC(=O)N[C@@H](CCC(=O)O)C(N)=O)NC(=O)[C@H](CCCNC(=N)N)NC(=O)[C@H](Cc2c[nH]cn2)NC(=O)[C@H](CCC(=O)O)NC(=O)CNC(=O)[C@H](Cc2c[nH]c3ccccc23)NC(=O)[C@H](CCC(=O)O)NC(=O)[C@H](CCC(N)=O)NC(=O)[C@H](Cc2cn(C)c3ccccc23)NC1=O
As for B9, the IC50[nM], inhibition of hemolysis was less than 100 nM.

B10: Compound 72 (peptide)
peptide: Ac-FCI[Trp(1-Me)]QDW[Sar]EHRCTGAES-NH2
modifications: disulfide 2-12
SMILES: CC[C@H](C)[C@@H]1NC(=O)[C@@H](NC(=O)[C@H](Cc2ccccc2)NC(C)=O)CSSC[C@@H](C(=O)N[C@H](C(=O)NCC(=O)N[C@@H](C)C(=O)N[C@@H](CCC(=O)O)C(=O)N[C@@H](CO)C(N)=O)[C@@H](C)O)NC(=O)[C@H](CCCNC(=N)N)NC(=O)[C@H](Cc2c[nH]cn2)NC(=O)[C@H](CCC(=O)O)NC(=O)CN(C)C(=O)[C@H](Cc2c[nH]c3ccccc23)NC(=O)[C@H](CC(=O)O)NC(=O)[C@H](CCC(N)=O)NC(=O)[C@H](Cc2cn(C)c3ccccc23)NC1=O
Consider B10, for which the IC50[nM], inhibition of hemolysis is less than 100 nM.

B11: Compound 80 (peptide)
peptide: Ac-EFCI[Trp(1-Me)]QDWGEHRC[Sar]EA-NH2
modifications: disulfide 3-13
SMILES: CC[C@H](C)[C@@H]1NC(=O)[C@@H](NC(=O)[C@H](Cc2ccccc2)NC(=O)[C@H](CCC(=O)O)NC(C)=O)CSSC[C@@H](C(=O)N(C)CC(=O)N[C@@H](CCC(=O)O)C(=O)N[C@@H](C)C(N)=O)NC(=O)[C@H](CCCNC(=N)N)NC(=O)[C@H](Cc2c[nH]cn2)NC(=O)[C@H](CCC(=O)O)NC(=O)CNC(=O)[C@H](Cc2c[nH]c3ccccc23)NC(=O)[C@H](CC(=O)O)NC(=O)[C@H](CCC(N)=O)NC(=O)[C@H](Cc2cn(C)c3ccccc23)NC1=O
For B11, the IC50[nM], inhibition of hemolysis was less than 100 nM.

B12: Compound 74 (peptide)
peptide: Ac-SEFCI[Trp(1-Me)]QDWGEHRC[Sar]GAES-NH2
modifications: disulfide 4-14
SMILES: CC[C@H](C)[C@@H]1NC(=O)[C@@H](NC(=O)[C@H](Cc2ccccc2)NC(=O)[C@H](CCC(=O)O)NC(=O)[C@H](CO)NC(C)=O)CSSC[C@@H](C(=O)N(C)CC(=O)NCC(=O)N[C@@H](C)C(=O)N[C@@H](CCC(=O)O)C(=O)N[C@@H](CO)C(N)=O)NC(=O)[C@H](CCCNC(=N)N)NC(=O)[C@H](Cc2c[nH]cn2)NC(=O)[C@H](CCC(=O)O)NC(=O)CNC(=O)[C@H](Cc2c[nH]c3ccccc23)NC(=O)[C@H](CC(=O)O)NC(=O)[C@H](CCC(N)=O)NC(=O)[C@H](Cc2cn(C)c3ccccc23)NC1=O
As to B12, the IC50[nM], inhibition of hemolysis is less than 100 nM.

B13: Compound 77 (peptide)
peptide: Ac-SEFCI[Trp(1-Me)]QDW[Sar]EHRCTEA-NH2
modifications: disulfide 4-14
SMILES: CC[C@H](C)[C@@H]1NC(=O)[C@@H](NC(=O)[C@H](Cc2ccccc2)NC(=O)[C@H](CCC(=O)O)NC(=O)[C@H](CO)NC(C)=O)CSSC[C@@H](C(=O)N[C@H](C(=O)N[C@@H](CCC(=O)O)C(=O)N[C@@H](C)C(N)=O)[C@@H](C)O)NC(=O)[C@H](CCCNC(=N)N)NC(=O)[C@H](Cc2c[nH]cn2)NC(=O)[C@H](CCC(=O)O)NC(=O)CN(C)C(=O)[C@H](Cc2c[nH]c3ccccc23)NC(=O)[C@H](CC(=O)O)NC(=O)[C@H](CCC(N)=O)NC(=O)[C@H](Cc2cn(C)c3ccccc23)NC1=O
Take B13: the IC50[nM], inhibition of hemolysis was less than 100 nM.

For the origin of these results see US20220306695A1, “COMPSTATIN ANALOGUES AND THEIR MEDICAL USES” (priority 2019, published 2022).
